# US20260258131A1 (ADAGENE PTE, published 2026)
# “And” between values parts separate entries of the source, which are not always exact repeats. Identical values can stand only once.
# T1: human CTLA4 expressed on cells (human, UniProt P16410 36-223)
# T1 sequence (looked up): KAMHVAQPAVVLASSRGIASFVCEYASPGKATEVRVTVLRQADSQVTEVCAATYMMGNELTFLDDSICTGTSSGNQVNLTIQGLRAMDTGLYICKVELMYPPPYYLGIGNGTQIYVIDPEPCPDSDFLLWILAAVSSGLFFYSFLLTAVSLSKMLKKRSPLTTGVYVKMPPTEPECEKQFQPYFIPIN
# T2: Recombinant human CTLA4-hisFc (human, UniProt P16410 36-161, limits assumed)
# T2 construct: Coated on the ELISA plate; the whole UniProt entry is named; also called recombinant human CLTA4-hisFc; its antigen; not shown: his tag and Fc
# T2 sequence (looked up): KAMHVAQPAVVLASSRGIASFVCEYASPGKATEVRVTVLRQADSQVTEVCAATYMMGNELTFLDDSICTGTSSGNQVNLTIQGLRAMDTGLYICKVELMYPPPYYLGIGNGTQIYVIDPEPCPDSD
# Target: T1, human CTLA4 expressed on cells
# Experiment: cell-based or functional assay
row,"ADCP reporter activity (luciferase), EC50",Binder
1,2.04 nM,"TY24040 (antibody, human IgG1, kappa) heavy: not shown light: DIQLTQSPSSLSASVGDRVTITCRASQSVRGRFLAWYQQKPGKAPKLLIYDASNRATGIPSRFSGSGSGTDFTLTISSLQPEDFATYYCQQSSSWPPTFGQGTKVEIKRTVAAPSVFIFPPSDEQLKSGTASVVCLLNNFYPREAKVQWKVDNALQSGNSQESVTEQDSKDSTYSLSSTLTLSKADYEKHKVYACEVTHQGLSSPVTKSFNRGEC"

# Target: T2, Recombinant human CTLA4-hisFc
# Experiment: ELISA, coated CTLA4-hisFc
# Description: (§1) Recombinant human CTLA4-hisFc was diluted to 1 μg/mL in PBS and coated on a Maxisorp plate at 4° C. overnight. Plates were blocked with PBS supplemented with 3% non-fat milk at 37° C. for 1 hour. After washing, 100 µL of 3-fold serial dilutions of antibodies were added to each well. After incubation at 37° C. for 1 hour, plates were washed four times, and 100 μL HRP conjugated anti-human IgG (Fab specific) (1:6000 dilution) was added to each well. Plates were incubated at 37° C. for 1 hour, washed four times, and then 50 μL TMB substrate solution was added to each well, and the plate was incubated at room temperature. Absorbance at 450 nm was measured after the reactions were stopped with 50 μL H2SO4 per well. The EC50 was evaluated by fitting the ELISA data using the sigmoidal (four-parameter logistic equation) model of GraphPad Prism 6 software. Experiments for some activatable antibodies were performed twice or more, leading to two or more calculated masking efficiencies being obtained for each of these activatable antibodies.
EC50,Masking efficiency (EC50 / EC50 of TY21580),Binder
996 nM,,"TY24463 (antibody, human IgG1, kappa) heavy: not shown light: EVGSYTLCEPFATSVCRPSGRGPLGLAGGSDIQLTQSPSSLSASVGDRVTITCRASQSVRGRFLAWYQQKPGKAPKLLIYDASNRATGIPSRFSGSGSGTDFTLTISSLQPEDFATYYCQQSSSWPPTFGQGTKVEIKRTVAAPSVFIFPPSDEQLKSGTASVVCLLNNFYPREAKVQWKVDNALQSGNSQESVTEQDSKDSTYSLSSTLTLSKADYEKHKVYACEVTHQGLSSPVTKSFNRGEC"
2140 nM,,"TY24464 (antibody, human IgG1, kappa) heavy: not shown light: EVGSYTLCEPFATSVCRPSGGGPLGLAGGSDIQLTQSPSSLSASVGDRVTITCRASQSVRGRFLAWYQQKPGKAPKLLIYDASNRATGIPSRFSGSGSGTDFTLTISSLQPEDFATYYCQQSSSWPPTFGQGTKVEIKRTVAAPSVFIFPPSDEQLKSGTASVVCLLNNFYPREAKVQWKVDNALQSGNSQESVTEQDSKDSTYSLSSTLTLSKADYEKHKVYACEVTHQGLSSPVTKSFNRGEC"
314 nM,,"TY24462 (antibody, human IgG1, kappa) heavy: not shown light: ESSCKAPYPYCKGSGGGPLGLAGGSDIQLTQSPSSLSASVGDRVTITCRASQSVRGRFLAWYQQKPGKAPKLLIYDASNRATGIPSRFSGSGSGTDFTLTISSLQPEDFATYYCQQSSSWPPTFGQGTKVEIKRTVAAPSVFIFPPSDEQLKSGTASVVCLLNNFYPREAKVQWKVDNALQSGNSQESVTEQDSKDSTYSLSSTLTLSKADYEKHKVYACEVTHQGLSSPVTKSFNRGEC"
123 nM and 122 nM,356 fold,"TY24149 (antibody, human IgG1, kappa) heavy: not shown light: EVGSYPPCVGFYPYCKTSGRSAGGGGTPLGLAGSGGSDIQLTQSPSSLSASVGDRVTITCRASQSVRGRFLAWYQQKPGKAPKLLIYDASNRATGIPSRFSGSGSGTDFTLTISSLQPEDFATYYCQQSSSWPPTFGQGTKVEIKRTVAAPSVFIFPPSDEQLKSGTASVVCLLNNFYPREAKVQWKVDNALQSGNSQESVTEQDSKDSTYSLSSTLTLSKADYEKHKVYACEVTHQGLSSPVTKSFNRGEC"
438 nM (2×) and 210 nM (2×),,"TY24155 (antibody, human IgG1, kappa) heavy: not shown light: EVGSYSSCKAPYPYCKGSGRSAGGGGTPLGLAGSGGSDIQLTQSPSSLSASVGDRVTITCRASQSVRGRFLAWYQQKPGKAPKLLIYDASNRATGIPSRFSGSGSGTDFTLTISSLQPEDFATYYCQQSSSWPPTFGQGTKVEIKRTVAAPSVFIFPPSDEQLKSGTASVVCLLNNFYPREAKVQWKVDNALQSGNSQESVTEQDSKDSTYSLSSTLTLSKADYEKHKVYACEVTHQGLSSPVTKSFNRGEC"
25.8 nM,,"TY24851 (antibody, IgG1, V domains shown, also called non-cleavable antibody TY24851) VH: EVQLVESGGGLVQPGGSLRLSCAASGYSISSGYHWSWIRQAPGKGLEWLARIDWDDDKYYSTSLKSRLTISRDNSKNTLYLQLNSLRAEDTAVYYCARSYVYFDYWGQGTLVTVSS VL: ETLCEPFATSVCRPGGGGSGGSGGGSDIQLTQSPSSLSASVGDRVTITCRASQSVRGRFLAWYQQKPGKAPKLLIYDASNRATGIPSRFSGSGSGTDFTLTISSLQPEDFATYYCQQSSSWPPTFGQGTKVEIKR"
34.9 nM,,"TY24841 (antibody, V domains shown) VH: EVQLVESGGGLVQPGGSLRLSCAASGYSISSGYHWSWIRQAPGKGLEWLARIDWDDDKYYSTSLKSRLTISRDNSKNTLYLQLNSLRAEDTAVYYCARSYVYFDYWGQGTLVTVSS VL: ETLCEPFATSVCRPGGGGSGGSGGGSDIQLTQSPSSLSASVGDRVTITCRASQSVRGRFLAWYQQKPGKAPKLLIYDASNRATGIPSRFSGSGSGTDFTLTISSLQPEDFATYYCQQSSSWPPTFGQGTKVEIKR"
310 nM,,"TY24461 (antibody, human IgG1, kappa) heavy: not shown light: EVGSYSSCKAPYPYCKGGGGPLGLAGGSDIQLTQSPSSLSASVGDRVTITCRASQSVRGRFLAWYQQKPGKAPKLLIYDASNRATGIPSRFSGSGSGTDFTLTISSLQPEDFATYYCQQSSSWPPTFGQGTKVEIKRTVAAPSVFIFPPSDEQLKSGTASVVCLLNNFYPREAKVQWKVDNALQSGNSQESVTEQDSKDSTYSLSSTLTLSKADYEKHKVYACEVTHQGLSSPVTKSFNRGEC"
150 nM,436 fold,"TY24148 (antibody, human IgG1, kappa) heavy: not shown light: EVGSYVLCAKFPFCITSGRSAGGGGTPLGLAGSGGSDIQLTQSPSSLSASVGDRVTITCRASQSVRGRFLAWYQQKPGKAPKLLIYDASNRATGIPSRFSGSGSGTDFTLTISSLQPEDFATYYCQQSSSWPPTFGQGTKVEIKRTVAAPSVFIFPPSDEQLKSGTASVVCLLNNFYPREAKVQWKVDNALQSGNSQESVTEQDSKDSTYSLSSTLTLSKADYEKHKVYACEVTHQGLSSPVTKSFNRGEC"
3.17 µM (2×) and 2.23 µM (2×),,"TY24466 (antibody, human IgG1, kappa) heavy: not shown light: ETLCEPFATSVCRPSGGGPLGLAGGSDIQLTQSPSSLSASVGDRVTITCRASQSVRGRFLAWYQQKPGKAPKLLIYDASNRATGIPSRFSGSGSGTDFTLTISSLQPEDFATYYCQQSSSWPPTFGQGTKVEIKRTVAAPSVFIFPPSDEQLKSGTASVVCLLNNFYPREAKVQWKVDNALQSGNSQESVTEQDSKDSTYSLSSTLTLSKADYEKHKVYACEVTHQGLSSPVTKSFNRGEC"
339 nM,,"TY24460 (antibody, human IgG1, kappa) heavy: not shown light: EVGSYSSCKAPYPYCKGSGGGPLGLAGGSDIQLTQSPSSLSASVGDRVTITCRASQSVRGRFLAWYQQKPGKAPKLLIYDASNRATGIPSRFSGSGSGTDFTLTISSLQPEDFATYYCQQSSSWPPTFGQGTKVEIKRTVAAPSVFIFPPSDEQLKSGTASVVCLLNNFYPREAKVQWKVDNALQSGNSQESVTEQDSKDSTYSLSSTLTLSKADYEKHKVYACEVTHQGLSSPVTKSFNRGEC"
2.33 µM (2×) and 1.2 µM (2×),,"TY24465 (antibody, human IgG1, kappa) heavy: not shown light: EVGSYTLCEPFATSVCRPGGGPLGLAGGSDIQLTQSPSSLSASVGDRVTITCRASQSVRGRFLAWYQQKPGKAPKLLIYDASNRATGIPSRFSGSGSGTDFTLTISSLQPEDFATYYCQQSSSWPPTFGQGTKVEIKRTVAAPSVFIFPPSDEQLKSGTASVVCLLNNFYPREAKVQWKVDNALQSGNSQESVTEQDSKDSTYSLSSTLTLSKADYEKHKVYACEVTHQGLSSPVTKSFNRGEC"
209 nM,,"TY24459 (antibody, human IgG1, kappa) heavy: not shown light: EVGSYSSCKAPYPYCKGSGRGPLGLAGGSDIQLTQSPSSLSASVGDRVTITCRASQSVRGRFLAWYQQKPGKAPKLLIYDASNRATGIPSRFSGSGSGTDFTLTISSLQPEDFATYYCQQSSSWPPTFGQGTKVEIKRTVAAPSVFIFPPSDEQLKSGTASVVCLLNNFYPREAKVQWKVDNALQSGNSQESVTEQDSKDSTYSLSSTLTLSKADYEKHKVYACEVTHQGLSSPVTKSFNRGEC"

# Target: T2, Recombinant human CTLA4-hisFc
# Experiment: ELISA, coated CTLA4-hisFc, after MMP-9 cleavage
# Description: as §1, with “Plates” for “Recombinant human CTLA4-hisFc was diluted to 1 μg/mL in PBS and coated on a Maxisorp plate at 4° C. overnight. Plates”
# The purified activatable antibodies were treated with the proteases which recognize the cleavage sequences, and were then tested to determine whether removal of the masking peptide restored their activity. […] The reactions were carried out at 37° C. for 24 hours. […] The masking efficiency was then measured by ELISA as described above.
row,EC50,Binder
1,0.286 nM,"TY24649-MMP9 (antibody, human IgG1, TY24649 after 24 h with MMP-9; Wild-type human IgG1 Fc; also called TY24649 treated with recombinant human MMP-9) heavy: not shown light: DIQLTQSPSSLSASVGDRVTITCRASQSVRGRFLAWYQQKPGKAPKLLIYDASNRATGIPSRFSGSGSGTDFTLTISSLQPEDFATYYCQQSSSWPPTFGQGTKVEIKRTVAAPSVFIFPPSDEQLKSGTASVVCLLNNFYPREAKVQWKVDNALQSGNSQESVTEQDSKDSTYSLSSTLTLSKADYEKHKVYACEVTHQGLSSPVTKSFNRGEC"
